Experimental data from publication doi:10.1101/2025.06.12.659276.

Molecular target: mGq fused to GFP10
Test: BRET (mGq-GFP recruitment to Rluc-fused receptor)
Settings: n = 4, parent: est. 0.30, read off a plot

US28-Rluc (from UniProt P69332) US28-PDCT: S>A at 12 sites and T>V at 2 sites after helix 8, in the printed stretch QRLF[S>A]RDV[S>A]WYH[S>A]M[S>A]F[S>A]RR[S>A][S>A]P[S>A]RRE[T>V][S>A][S>A]D[T>V]L[S>A]DEVCRV[S>A]QIIP; residue numbers not printed
response (parental HEK-293 cells): 0.31 | response (β-arrestin 1/2-deficient (Δβarr1/2) HEK-293 cells): 0.26
